Measured values as given in paper PMC13495755 (Journal of the American Chemical Society, 2026).
Blank lines part the entries; values can stand above or below the molecule they belong to. The star is where a group is joined. 5FAM = O=C1OC2(c3ccc(O)cc3Oc3cc(O)ccc32)c2ccc(C(=O)*)cc21; Ahx = NCCCCCC(=O)O

Key:
[1] = molecular target: MCL-1 (UniProt Q07820); assay: fluorescence polarisation; direct FA titration of the labeled BID peptide with BCL-xL or MCL-1
[2] = molecular target: BCL-xL (UniProt Q07817); assay: as above
[3] = molecular target: T1, Kelch-like protein 20 (KLHL20) (UniProt Q9Y2M5 1-609); assay: fluorescence polarisation; direct FA titration of the tracer with KLHL20; conditions: both partners purified
T1 construct: Kelch-like protein 20 (KLHL20), E3 ubiquitin ligase adapter; The functional rows use this molecule for KLHL20 of HEK293 cells; also called E3 ligase adapter
T1 sequence (looked up): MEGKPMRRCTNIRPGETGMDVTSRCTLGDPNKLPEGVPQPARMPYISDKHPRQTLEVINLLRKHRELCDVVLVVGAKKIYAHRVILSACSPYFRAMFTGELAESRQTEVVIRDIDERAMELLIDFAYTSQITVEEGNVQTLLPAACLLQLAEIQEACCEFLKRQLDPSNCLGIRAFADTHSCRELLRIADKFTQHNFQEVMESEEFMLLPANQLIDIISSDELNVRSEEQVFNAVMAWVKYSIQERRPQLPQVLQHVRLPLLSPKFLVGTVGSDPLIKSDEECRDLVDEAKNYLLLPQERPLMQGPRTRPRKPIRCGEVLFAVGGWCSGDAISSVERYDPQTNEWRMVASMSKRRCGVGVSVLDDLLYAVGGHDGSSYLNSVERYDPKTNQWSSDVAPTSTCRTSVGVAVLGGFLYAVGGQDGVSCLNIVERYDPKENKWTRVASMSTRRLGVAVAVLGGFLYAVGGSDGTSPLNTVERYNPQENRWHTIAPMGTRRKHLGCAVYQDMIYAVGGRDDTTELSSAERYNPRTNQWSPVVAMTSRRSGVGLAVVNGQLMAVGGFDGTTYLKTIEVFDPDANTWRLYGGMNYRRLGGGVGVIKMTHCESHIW

[4] = molecular target: T2, KLHL20 (303-605); assay: fluorescence polarisation; direct titration of the FAM-labelled tracer peptide with the target protein; FA buffer 20 mM Tris, 150 mM NaCl pH 7.4, 1 mM DTT, 0.01% triton x100
T2 sequence (Q9Y2M5 303-605, species assumed, looked up): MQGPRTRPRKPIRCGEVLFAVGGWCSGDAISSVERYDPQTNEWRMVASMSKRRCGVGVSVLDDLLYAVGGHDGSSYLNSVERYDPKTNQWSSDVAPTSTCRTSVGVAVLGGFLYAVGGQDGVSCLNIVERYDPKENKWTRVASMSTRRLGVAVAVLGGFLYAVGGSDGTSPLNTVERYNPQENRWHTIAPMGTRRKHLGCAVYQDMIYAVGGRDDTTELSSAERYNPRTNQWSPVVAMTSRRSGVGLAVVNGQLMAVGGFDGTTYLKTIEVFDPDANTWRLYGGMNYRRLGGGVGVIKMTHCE

[5] = molecular target: T3, BCL-xL (1-26 + 81-198); assay: fluorescence polarisation; competitive fluorescence anisotropy; target protein (BCL-xL or MCL-1) fixed at 150 nM, FAM-BID tracer fixed at 25 nM, competitor protein titrated in; FA buffer 20 mM Tris, 150 mM NaCl pH 7.4, 1 mM DTT, 0.01% triton x100 (legends: 20 mM Tris-HCl, 150 mM NaCl, pH 7.5); triplicate; logistic fit; conditions: both partners purified
T3 construct: BCL-xL, first stretch of the loop-deleted construct; BCL-xL, second stretch; Loop between the two stretches deleted; no linker; source: E. coli BL21 DE3, purified (His-trap, SUMO tag removed with His-Ulp1, reverse His-trap, Superdex 75); not shown: His6, N-terminal, cleaved; SUMO, N-terminal, cleaved
T3 chain: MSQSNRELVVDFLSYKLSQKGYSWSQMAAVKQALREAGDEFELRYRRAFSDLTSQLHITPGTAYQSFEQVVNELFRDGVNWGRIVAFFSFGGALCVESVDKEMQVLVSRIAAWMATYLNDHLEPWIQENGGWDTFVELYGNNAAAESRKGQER

[6] = molecular target: T4, MCL-1 (172-327); assay: as above; conditions: both partners purified
T4 construct: MCL-1 residues 172-327 as labelled; source: E. coli BL21 DE3, purified (His-trap, SUMO tag removed with His-Ulp1, reverse His-trap, Superdex 75); not shown: His6, N-terminal, cleaved; SUMO, N-terminal, cleaved
T4 chain: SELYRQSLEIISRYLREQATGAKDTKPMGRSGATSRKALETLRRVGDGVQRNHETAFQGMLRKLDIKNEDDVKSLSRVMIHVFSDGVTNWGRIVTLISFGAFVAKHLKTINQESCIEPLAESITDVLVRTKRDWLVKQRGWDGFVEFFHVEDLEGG

Sequence of MCL-1 (Q07820 whole entry): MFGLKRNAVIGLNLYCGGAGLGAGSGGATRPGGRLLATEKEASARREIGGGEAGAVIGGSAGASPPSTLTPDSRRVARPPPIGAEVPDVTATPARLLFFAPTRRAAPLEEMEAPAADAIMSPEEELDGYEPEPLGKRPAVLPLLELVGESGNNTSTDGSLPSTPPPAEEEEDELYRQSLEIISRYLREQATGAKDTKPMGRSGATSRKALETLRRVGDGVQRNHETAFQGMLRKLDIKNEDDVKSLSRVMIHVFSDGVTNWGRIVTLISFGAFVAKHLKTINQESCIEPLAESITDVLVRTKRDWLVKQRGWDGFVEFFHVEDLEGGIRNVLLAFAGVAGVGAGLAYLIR

Molecule: BID, natural effector peptide, labeled competitor peptide
Kd [1]: 21.5 nM
Kd [2]: 71 nM

B1: FAM-DAPK1 (peptide)
peptide: {5FAM-Ahx}-LGLPDLVAK-NH2
SMILES: CC(C)C[C@H](NC(=O)CCCCCNC(=O)c1ccc2c(c1)C(=O)OC21c2ccc(O)cc2Oc2cc(O)ccc21)C(=O)NCC(=O)N[C@@H](CC(C)C)C(=O)N1CCC[C@H]1C(=O)N[C@@H](CC(=O)O)C(=O)N[C@@H](CC(C)C)C(=O)N[C@H](C(=O)N[C@@H](C)C(=O)N[C@@H](CCCCN)C(N)=O)C(C)C
Kd [4]: 12200 nM

B3: Sc-apCC-2-BCL-xL-11 (designed binder)
chain: SHMGPELAALQAERDALEARLAELDREIAALEWRIPSDPRKKQLIGELLRLFGDRFDLERRIAELDAKIEALKNG
notes: de novo helix-loop-helix design against BCL-xL (Strategy 3, pAE); source: E. coli BL21 DE3, purified (His-trap, TEV cleavage, reverse His-trap, Superdex 75); not shown: His6, N-terminal, cleaved
IC50 [5]: 197 ± 10 nM
IC50 [6]: 500 ± 150 nM

More lines, now with the values ahead:

Kd [3]: 12000 nM
Molecule: {FAM-Ahx}-LGLPDLVAK-NH2 [tracer of the competitive FA-binding assay for KLHL20]

IC50 [5]: 212 ± 18 nM
IC50 [6]: 270 ± 20 nM
B2: Sc-apCC-2-BCL-xL-12 (designed binder)
chain: SHMGPELERLEERRRELERELEELDREIAELEWTIKSDPRKKELIVKLRQLFGRRLRLMGDIFDLDVQIRRLREG
